Data set [1] concerns the target T1, MuA transposase (UniProt P07636 P07636:1-663). Put plainly: MuA stays bound after transposition into PhiX174 at room temperature (no Bioanalyser peak); released at 75 C; 10 mM MgCl2, 110 mM NaCl, pH 8. Particulars: tags: ThermoFisher Scientific; chain copies: 4; 3' overhang on bottom strand. As to the method: Transpososome 1 and transpososome 2 were each mixed to 50 nM with 1.5 ug of PhiX174 RFI DNA (New England Biolabs) in 25 mM Tris.HCl pH8, 110 mM NaCl and 10 mM MgCl₂ in a 30 ul reaction in a 0.2 ml PCR tube. Each reaction was incubated at room temperature for 2 minutes before being split […] to form 3 tubes of 10 uls for each. 1 tube of each transpososome was incubated at 75° C. for 5 minutes, 1 tube of each transpososome was left at room temperature for 5 minutes with nothing added. Hel308Mbu-E284C/S615C-STrEP(C) (1 uM) was added to the final tubes along with 10 mM of ATP (Sigma-Aldrich) and incubated at room temperature for 5 minutes. 1 ul of each reaction was then analysed on the Agilent 2100 Bioanalyser 12,000 bp setting, along with 1 ul of unmodified PhiX.

The target in data set [2] is T1, MuA transposase. Put plainly: MuA stays bound at room temperature; tagmentation peak only after 75 C; MgCl2 buffer. As to conditions: tags: ThermoFisher Scientific; chain copies: 4; 5' bottom strand flap, 12 nt 5' tail on top strand, 10 nt 3' tail on bottom strand. The method, then: A transposome complex was formed but addition of 1 ul of the MuA adapter, 4.5 ul of nuclease free water, 2 ul of 5× transposome buffer (125 mM Tris pH 8, 550 mM NaCl, 2.5 mM EDTA, 50% glycerol, 0.25% Triton-X100) and 2.5 ul of concentrated MuA transposase (Thermofisher). The mixture was then incubated at 30° C. for 1.5 hours.
A transposition reaction, containing 10 ul of 5× transposase buffer (125 mM Tris pH 8, 550 mM NaCl, 50 mM MgCl2), 5 ul transposome, 2.5 ug PhiX RFI (NEB) and nuclease free water to 50 ul, was then carried out at room temperature for 10 minutes. After 10 mins 6.25 ul of 100 mM rATP was added and the reaction was split into 5×11.25 ul. To sample (i) and (ii) 1.25 ul of nuclease free water was added; to sample (iii) 1.25 ul of Hel308Mbu-E284C-STrEP(C) (SEQ ID NO: 10 with mutation E284C with a streptavidin tag attached at its C terminus) was added; to sample (iv) 1.25 ul of T4 Dda—(E94C/F98W/C109A/C136A/A360C) (SEQ ID NO: 97 with mutations E94C/F98W/C109A/C136A/A360C and then (ΔM1)G1G2 (where (ΔM1)G1G2=deletion of M1 and then addition G1 and G2), was added; to sample (v) 1.25 ul of UvrD Eco-(E117C/M380C)-STrEP (SEQ ID NO: 122 with mutations E177C/M380C with a streptavidin tag attached at the C terminus). Samples (i), (iii), (iv) and (v) were then left at room temperature for 10 mins while sample (ii) was left at 75° C. for 10 mins. […]

T1 sequence (P07636 whole entry, one chain of several): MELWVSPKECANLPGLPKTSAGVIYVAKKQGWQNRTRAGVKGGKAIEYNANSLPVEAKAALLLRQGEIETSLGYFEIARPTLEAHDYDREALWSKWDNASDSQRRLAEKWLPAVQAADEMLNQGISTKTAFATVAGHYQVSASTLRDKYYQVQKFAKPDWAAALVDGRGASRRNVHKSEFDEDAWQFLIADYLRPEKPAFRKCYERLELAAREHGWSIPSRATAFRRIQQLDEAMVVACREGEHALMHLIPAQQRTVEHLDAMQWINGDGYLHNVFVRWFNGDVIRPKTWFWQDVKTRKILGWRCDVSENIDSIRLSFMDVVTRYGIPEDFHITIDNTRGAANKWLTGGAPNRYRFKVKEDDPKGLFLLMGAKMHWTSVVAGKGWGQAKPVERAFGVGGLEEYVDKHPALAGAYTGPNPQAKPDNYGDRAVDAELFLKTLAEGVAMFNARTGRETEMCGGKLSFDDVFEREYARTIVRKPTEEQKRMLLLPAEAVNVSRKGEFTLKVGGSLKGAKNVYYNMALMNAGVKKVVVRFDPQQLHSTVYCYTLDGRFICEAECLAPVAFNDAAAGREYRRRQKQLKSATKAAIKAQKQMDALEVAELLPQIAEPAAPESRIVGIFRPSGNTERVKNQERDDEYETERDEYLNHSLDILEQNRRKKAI

B1: transposon 2 (dsDNA)
DNA 1: GTTTTCGCATTTATCGTGAAACGCTTTCGCGTTTTTCGTGCGCCGCTTCA
DNA 2: GATCTGAAGCGGCGCACGAAAAACGCGAAAGCGTTTCACGATAAATGCGAAAACTTTTTTTTTT
B1: the binding result in data set [1] is given as “binds”.

B2: MuA adapter (Example 2) (dsDNA)
DNA 1: GATCTGAAGCGGCGCACGAAAAACGCGAAAGCGTTTCACGATAAATGCGAAAACTTTTTTTTTT
DNA 2: TGCTGATATTGCGTTTTCGCATTTATCGTGAAACGCTTTCGCGTTTTTCGTGCGCCGCTTCA
For the molecule B2, the binding result in data set [2] is “binds”.

(Values after patent US20190194722, “METHOD” (Oxford Nanopore Technologies Ltd., published 2019).)
